Test results: patent US20260015399A1 (Boehringer Ingelheim, published 2026)
*1 amine or outer side, *2 acyl side, *3 side chain or, on linkers, in order; H or OH if unused. Side-chain parts run from the residue outwards. The star is where a group is joined. C18 diacid = O=C(O)CCCCCCCCCCCCCCCCC(=O)*; γGlu = O=C(O)[C@H](CCC(=O)[*:2])N[*:1]; Isovaleryl = CC(C)CC(=O)*; Ahx = NCCCCCC(=O)O

Columns and labels:
[1] = biological target: T1, human NPY2 receptor (human, UniProt P49146 1-381); assay: cell-based or functional assay
T1 sequence (looked up): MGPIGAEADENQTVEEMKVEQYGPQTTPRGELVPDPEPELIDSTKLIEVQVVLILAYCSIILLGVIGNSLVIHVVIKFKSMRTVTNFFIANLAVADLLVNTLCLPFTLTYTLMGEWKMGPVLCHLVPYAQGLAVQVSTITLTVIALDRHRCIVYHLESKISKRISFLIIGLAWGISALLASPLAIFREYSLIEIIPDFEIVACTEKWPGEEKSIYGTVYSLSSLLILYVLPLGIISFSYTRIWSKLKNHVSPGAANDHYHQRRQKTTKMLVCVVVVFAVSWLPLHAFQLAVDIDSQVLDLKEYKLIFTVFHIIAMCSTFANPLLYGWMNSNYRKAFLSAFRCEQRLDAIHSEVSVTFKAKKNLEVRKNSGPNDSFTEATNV

[2] = biological target: T2, human NPY1 receptor (human, UniProt P25929 1-384); assay: cell-based or functional assay
T2 sequence (looked up): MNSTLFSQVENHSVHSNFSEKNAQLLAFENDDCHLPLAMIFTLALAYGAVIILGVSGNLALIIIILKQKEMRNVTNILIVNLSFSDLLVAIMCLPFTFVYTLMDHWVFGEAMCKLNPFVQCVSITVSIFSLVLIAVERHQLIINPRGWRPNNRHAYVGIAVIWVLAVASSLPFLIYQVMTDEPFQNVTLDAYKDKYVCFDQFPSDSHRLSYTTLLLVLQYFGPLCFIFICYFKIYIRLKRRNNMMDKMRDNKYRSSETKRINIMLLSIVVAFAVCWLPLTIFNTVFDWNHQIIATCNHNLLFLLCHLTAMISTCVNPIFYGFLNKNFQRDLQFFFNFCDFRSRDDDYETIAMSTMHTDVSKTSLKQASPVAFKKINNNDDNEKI

[3] = biological target: human NPY4 receptor (human, UniProt P50391 1-375); assay: cell-based or functional assay
Chain of human NPY4 receptor (P50391 whole entry): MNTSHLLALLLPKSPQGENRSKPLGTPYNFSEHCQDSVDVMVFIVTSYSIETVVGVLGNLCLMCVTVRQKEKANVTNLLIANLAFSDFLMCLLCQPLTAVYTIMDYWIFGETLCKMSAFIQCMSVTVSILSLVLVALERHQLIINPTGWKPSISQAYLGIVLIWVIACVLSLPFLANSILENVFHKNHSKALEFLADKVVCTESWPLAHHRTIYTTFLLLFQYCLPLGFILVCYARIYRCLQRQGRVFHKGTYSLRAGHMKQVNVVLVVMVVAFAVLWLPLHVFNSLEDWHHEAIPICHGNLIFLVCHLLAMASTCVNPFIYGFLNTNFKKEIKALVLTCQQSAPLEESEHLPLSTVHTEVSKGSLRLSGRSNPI

[4] = biological target: T3, human NPY5 receptor (human, UniProt Q15761 1-445); assay: cell-based or functional assay
T3 sequence (looked up): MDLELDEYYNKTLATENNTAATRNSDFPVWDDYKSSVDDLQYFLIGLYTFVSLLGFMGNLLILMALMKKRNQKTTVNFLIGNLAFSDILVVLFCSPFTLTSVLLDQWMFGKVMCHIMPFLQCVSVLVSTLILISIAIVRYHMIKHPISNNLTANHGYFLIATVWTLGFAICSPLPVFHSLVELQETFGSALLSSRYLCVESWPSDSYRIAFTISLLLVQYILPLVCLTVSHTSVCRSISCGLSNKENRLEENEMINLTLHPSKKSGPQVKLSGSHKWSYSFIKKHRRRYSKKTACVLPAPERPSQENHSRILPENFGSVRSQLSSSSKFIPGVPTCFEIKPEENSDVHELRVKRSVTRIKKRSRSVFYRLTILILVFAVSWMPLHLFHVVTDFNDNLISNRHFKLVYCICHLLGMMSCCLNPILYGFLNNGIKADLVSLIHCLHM

[5] = biological target: T1, human NPY2 receptor; assay: ratio of apparent Ki, pH 6 filtrate vs pH 7 filtrate
Method: (§1) The filtration RLB assay was carried out in 96-well plates in a final volume of 100 μl per well. Freeze-dried test peptides were dissolved in 100% dimethyl sulfoxide (DMSO) to stock solutions of 1 mM and serial dilutions were performed in assay buffer (50 mM HEPES, 5 mM MgCl₂, 1 mM CaCl₂), pH 7.4) containing 0.2% ovalbumin. […] Next, 80 μL membranes (HTS066M, ChemiSCREEN™ Human Neuropeptide Y2 Receptor Membrane Preparation, CHEMICON) were added to each well to give a final protein concentration of 0.5 μg/well. The plates were sealed and incubated at room temperature for 2 hours in a plate shaker set at 400 rpm. The incubation was stopped by vacuum filtration onto 0.5% polyethylene amine (PEI) presoaked GF/C filters using a 96-well FilterMate™ harvester (Perkin Elmer) followed by four washes with 300 μl/well ice-cold wash buffer (50 mM HEPES, 500 mM NaCl, pH7.4). Filter plates were then dried for 60 min at room temperature and the bottom of the plates was sealed with backing tape UniFilter-96. Finally, 50 μl/well scintillation counter cocktail (Microscint20, Packard) was added and the radioactivity was counted in the Packard TopCount NXT scintillation counter. IC₅₀ values (the half maximal inhibitory concentration of the agonist) were calculated by nonlinear regression analysis of sigmoidal dose-response curves. […]

[6] = biological target: T1, human NPY2 receptor; assay: ratio of apparent Ki, pH 8 filtrate vs pH 7 filtrate
Method: as §1

[7] = biological target: T1, human NPY2 receptor; assay: RLB: displacement of 125I-PYY(1-36) from hNPY2R membranes
[8] = biological target: T1, human NPY2 receptor; assay: RLB (125I-PYY(1-36) displacement, hNPY2R membranes), peptide from DMSO stock
Method: as §1

[9] = biological target: T1, human NPY2 receptor; assay: RLB, apparent Ki of filtrate after incubation at pH 6.1-6.2 (assumed 10 mg/ml)
Method: as §1

[10] = biological target: T1, human NPY2 receptor; assay: RLB, apparent Ki of filtrate after incubation at pH 7.1-7.2 (assumed 10 mg/ml)
Method: as §1

[11] = biological target: T1, human NPY2 receptor; assay: RLB, apparent Ki of filtrate after incubation at pH 8.1-8.2 (assumed 10 mg/ml)
Method: The filtration RLB assay was carried out in 96-well plates in a final volume of 100 μl per well. Freeze-dried test peptides were dissolved in 100% dimethyl sulfoxide (DMSO) to stock solutions of 1 mM and serial dilutions were performed in assay buffer (50 mM HEPES, 5 mM MgCl₂, 1 mM CaCl₂), pH 7.4) containing 0.2% ovalbumin. […] Next, 80 μL membranes (HTS066M, ChemiSCREEN™ Human Neuropeptide Y2 Receptor Membrane Preparation, CHEMICON) were added to each well to give a final protein concentration of 0.5 μg/well. The plates were sealed and incubated at room temperature for 2 hours in a plate shaker set at 400 rpm. The incubation was stopped by vacuum filtration onto 0.5% polyethylene amine (PEI) presoaked GF/C filters using a 96-well FilterMate™ harvester (Perkin Elmer) followed by four washes with 300 μl/well ice-cold wash buffer (50 mM HEPES, 500 mM NaCl, pH7.4). Filter plates were then dried for 60 min at room temperature and the bottom of the plates was sealed with backing tape UniFilter-96. Finally, 50 μl/well scintillation counter cocktail (Microscint20, Packard) was added and the radioactivity was counted in the Packard TopCount NXT scintillation counter. IC₅₀ values (the half maximal inhibitory concentration of the agonist) were calculated by nonlinear regression analysis of sigmoidal dose-response curves.
The peptide was (partially) dissolved by shaking the filter unit horizontally at approx. 400 rpm for 2 hours at room temperature. The sample was filtered to remove any insoluble particles.

B1: Compound 176 (peptide)
peptide: Isovaleryl-APEK([Ahx-γGlu-C18 diacid])PEEDATPEEIQRYYVSLRHYYNWLTRQRY-NH2
SMILES: CC[C@H](C)[C@H](NC(=O)[C@H](CCC(=O)O)NC(=O)[C@H](CCC(=O)O)NC(=O)[C@@H]1CCCN1C(=O)[C@@H](NC(=O)[C@H](C)NC(=O)[C@H](CC(=O)O)NC(=O)[C@H](CCC(=O)O)NC(=O)[C@H](CCC(=O)O)NC(=O)[C@@H]1CCCN1C(=O)[C@H](CCCCNC(=O)CCCCCNC(=O)CC[C@H](NC(=O)CCCCCCCCCCCCCCCCC(=O)O)C(=O)O)NC(=O)[C@H](CCC(=O)O)NC(=O)[C@@H]1CCCN1C(=O)[C@H](C)NC(=O)CC(C)C)[C@@H](C)O)C(=O)N[C@@H](CCC(N)=O)C(=O)N[C@@H](CCCNC(=N)N)C(=O)N[C@@H](Cc1ccc(O)cc1)C(=O)N[C@@H](Cc1ccc(O)cc1)C(=O)N[C@H](C(=O)N[C@@H](CO)C(=O)N[C@@H](CC(C)C)C(=O)N[C@@H](CCCNC(=N)N)C(=O)N[C@@H](Cc1c[nH]cn1)C(=O)N[C@@H](Cc1ccc(O)cc1)C(=O)N[C@@H](Cc1ccc(O)cc1)C(=O)N[C@@H](CC(N)=O)C(=O)N[C@@H](Cc1c[nH]c2ccccc12)C(=O)N[C@@H](CC(C)C)C(=O)N[C@H](C(=O)N[C@@H](CCCNC(=N)N)C(=O)N[C@@H](CCC(N)=O)C(=O)N[C@@H](CCCNC(=N)N)C(=O)N[C@@H](Cc1ccc(O)cc1)C(N)=O)[C@@H](C)O)C(C)C
For B1, which “EC50, HTRF cAMP Gi assay” value [1] is on record?
The value was 0.168 nM.

And the “EC50, HTRF cAMP Gi assay” value [2]?
Its value is over 5000 nM.

What about the “EC50, HTRF cAMP Gi assay” value [3] of the same binder?
Its value is over 5000 nM.

And the “EC50, HTRF cAMP Gi assay” value [4]?
Its value is over 5000 nM.

What about the “RLB ratio (RLB6/RLB7)” value [5] of the same binder?
Its value is 1.

And the “RLB ratio (RLB8/RLB7)” value [6]?
The value was 1.4.

And the Ki [7]?
Its Ki is 1.48 nM.

What about the Ki [8] of the same binder?
Its Ki is 8.7 nM.

And the Ki [9]?
The Ki was 3.9 nM.

What about the Ki [10] of the same binder?
Its Ki is 4 nM.

What about the Ki [11] of the same binder?
The Ki was 5.7 nM.
